Earlier results as cited in patent US10076577B2, “Compositions and methods for treating endocrine, gastrointestinal or autoimmune disorders” (priority 2010, dated 2018).

Conditions: in vivo

Question: For Glucagon-like peptide-1 [GLP-1], which “half-life in the blood” value is on record?
Answer: Its value is “a few minutes”.
